This assay concerns the target T1, cynomolgus monkey FcγRIIIaS extracellular domain with C-terminal His-tag (cynomolgus monkey, UniProt Q8SPW2 21-206 at identity 1.00)).
T1 construct: also called cyno FcgRIIIaS; cynoFcγRIIIaS
T1 chain: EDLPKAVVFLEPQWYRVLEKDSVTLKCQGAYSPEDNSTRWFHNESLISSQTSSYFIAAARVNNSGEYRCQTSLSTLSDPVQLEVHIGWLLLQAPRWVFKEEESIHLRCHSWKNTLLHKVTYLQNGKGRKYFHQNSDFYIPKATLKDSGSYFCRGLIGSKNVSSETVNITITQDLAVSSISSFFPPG
As to the kind of experiment: SPR (BIACORE); KD of SG1 / KD of variant.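 Further: relative to parent M103205H795-SG1 carrying the SG1 human heavy chain constant region.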 Background: SPR reads the build-up and loss of mass on a sensor chip optically.

B1: M103205H795-MY380/M103202L889-SK1 (antibody, human IgG1, kappa)
heavy: QVTLKESGPVLVKPTETLTLTCTVSGIDLSHDDISWVRQAPGKGLEWVGIISYAGSTYYASWAKGRLTISKDTSKNQVVLTMTNMDPVDTATYYCARGVPAYSHGGDLWGQGTLVTVSSASTKGPSVFPLAPSSKSTSGGTAALGCLVKDYFPEPVTVSWNSGALTSGVHTFPAVLQSSGLYSLSSVVTVPSSSLGTQTYICNVNHKPSNTKVDKKVEPKSCDKTHTCPPCPAPELLNGPSVFLFPPKPKDTLMISRTPEVTCVVVDVSEEDPEVKFNWYVDGVEVHNAKTKPREEQYNSTYRVVSVLTVLHQDWLNGKEYKCKVSNKALPKPIEKTISKAKGQPREPQVYTLPPSREEMTKNQVSLTCLVKGFYPSDIAVEWESNGQPENNYKTTPKVLDSDGSFFLYSKLTVDKSRWQQGNVFSCSVMHEALHNHYTQKSLSLSP
light: DIVMTQSPATLSLSPGERATLSCTSSQSVYHANWLSWFQQKPGQPPKLLIYWASTLAYGVPSRFSGSGSGTDFTLTISSLQPEDAATYYCAGGYGGGRYAFGQGTKVEIKRTVAAPSVFIFPPSDEQLKSGTASVVCLLNNFYPREAKVQWKVDNALQSGNSQESVTEQDSKDSTYSLSSTLTLSKADYEKHKVYACEVTHQGLSSPVTKSFNRGEC
notes: Substitutions introduced into M103205H795-SG1, expressed with M103202L889-SK1 as light chain; EU numbering
For the molecule B1, the “KD fold (SG1 = 1)” value worked out at 0.13 fold.

B2: M103205H795-MY388/M103202L889-SK1 (antibody, human IgG1, kappa)
heavy: QVTLKESGPVLVKPTETLTLTCTVSGIDLSHDDISWVRQAPGKGLEWVGIISYAGSTYYASWAKGRLTISKDTSKNQVVLTMTNMDPVDTATYYCARGVPAYSHGGDLWGQGTLVTVSSASTKGPSVFPLAPSSKSTSGGTAALGCLVKDYFPEPVTVSWNSGALTSGVHTFPAVLQSSGLYSLSSVVTVPSSSLGTQTYICNVNHKPSNTKVDKKVEPKSCDKTHTCPPCPAPELLTGPIVFLFPPKPKDTLMISRTPEVTCVVVDVSDEDPEVKFNWYVDGVEVHNAKTKPREEQYNSTYRVVSVLTVLHQDWLNGKEYKCKVSNKALPKPIEKTISKAKGQPREPQVYTLPPSREEMTKNQVSLTCLVKGFYPSDIAVEWESNGQPENNYKTTPPVLDSDGSFFLYSKLTVDKSRWQQGNVFSCSVMHEALHNHYTQKSLSLSP
light: DIVMTQSPATLSLSPGERATLSCTSSQSVYHANWLSWFQQKPGQPPKLLIYWASTLAYGVPSRFSGSGSGTDFTLTISSLQPEDAATYYCAGGYGGGRYAFGQGTKVEIKRTVAAPSVFIFPPSDEQLKSGTASVVCLLNNFYPREAKVQWKVDNALQSGNSQESVTEQDSKDSTYSLSSTLTLSKADYEKHKVYACEVTHQGLSSPVTKSFNRGEC
notes: as for B1
Consider B2, for which the “KD fold (SG1 = 1)” value was found to be 0.23 fold.

B3: M103205H795-MY387/M103202L889-SK1 (antibody, human IgG1, kappa)
heavy: QVTLKESGPVLVKPTETLTLTCTVSGIDLSHDDISWVRQAPGKGLEWVGIISYAGSTYYASWAKGRLTISKDTSKNQVVLTMTNMDPVDTATYYCARGVPAYSHGGDLWGQGTLVTVSSASTKGPSVFPLAPSSKSTSGGTAALGCLVKDYFPEPVTVSWNSGALTSGVHTFPAVLQSSGLYSLSSVVTVPSSSLGTQTYICNVNHKPSNTKVDKKVEPKSCDKTHTCPPCPAPELLTGPVVFLFPPKPKDTLMISRTPEVTCVVVDVSDEDPEVKFNWYVDGVEVHNAKTKPREEQYNSTYRVVSVLTVLHQDWLNGKEYKCKVSNKALPKPIEKTISKAKGQPREPQVYTLPPSREEMTKNQVSLTCLVKGFYPSDIAVEWESNGQPENNYKTTPPVLDSDGSFFLYSKLTVDKSRWQQGNVFSCSVMHEALHNHYTQKSLSLSP
light: DIVMTQSPATLSLSPGERATLSCTSSQSVYHANWLSWFQQKPGQPPKLLIYWASTLAYGVPSRFSGSGSGTDFTLTISSLQPEDAATYYCAGGYGGGRYAFGQGTKVEIKRTVAAPSVFIFPPSDEQLKSGTASVVCLLNNFYPREAKVQWKVDNALQSGNSQESVTEQDSKDSTYSLSSTLTLSKADYEKHKVYACEVTHQGLSSPVTKSFNRGEC
notes: as for B1
B3: the “KD fold (SG1 = 1)” value was determined as 0.14 fold.

B4: M103205H795-MY389/M103202L889-SK1 (antibody, human IgG1, kappa)
heavy: QVTLKESGPVLVKPTETLTLTCTVSGIDLSHDDISWVRQAPGKGLEWVGIISYAGSTYYASWAKGRLTISKDTSKNQVVLTMTNMDPVDTATYYCARGVPAYSHGGDLWGQGTLVTVSSASTKGPSVFPLAPSSKSTSGGTAALGCLVKDYFPEPVTVSWNSGALTSGVHTFPAVLQSSGLYSLSSVVTVPSSSLGTQTYICNVNHKPSNTKVDKKVEPKSCDKTHTCPPCPAPELLTGPLVFLFPPKPKDTLMISRTPEVTCVVVDVSDEDPEVKFNWYVDGVEVHNAKTKPREEQYNSTYRVVSVLTVLHQDWLNGKEYKCKVSNKALPKPIEKTISKAKGQPREPQVYTLPPSREEMTKNQVSLTCLVKGFYPSDIAVEWESNGQPENNYKTTPPVLDSDGSFFLYSKLTVDKSRWQQGNVFSCSVMHEALHNHYTQKSLSLSP
light: DIVMTQSPATLSLSPGERATLSCTSSQSVYHANWLSWFQQKPGQPPKLLIYWASTLAYGVPSRFSGSGSGTDFTLTISSLQPEDAATYYCAGGYGGGRYAFGQGTKVEIKRTVAAPSVFIFPPSDEQLKSGTASVVCLLNNFYPREAKVQWKVDNALQSGNSQESVTEQDSKDSTYSLSSTLTLSKADYEKHKVYACEVTHQGLSSPVTKSFNRGEC
notes: as for B1
Turning to B4, the “KD fold (SG1 = 1)” value stood at 0.24 fold.

B5: M103205H795-MY392/M103202L889-SK1 (antibody, human IgG1, kappa)
heavy: QVTLKESGPVLVKPTETLTLTCTVSGIDLSHDDISWVRQAPGKGLEWVGIISYAGSTYYASWAKGRLTISKDTSKNQVVLTMTNMDPVDTATYYCARGVPAYSHGGDLWGQGTLVTVSSASTKGPSVFPLAPSSKSTSGGTAALGCLVKDYFPEPVTVSWNSGALTSGVHTFPAVLQSSGLYSLSSVVTVPSSSLGTQTYICNVNHKPSNTKVDKKVEPKSCDKTHTCPPCPAPELLTGPSVFLFPPKPKDTLMISRTPEVTCVVVDVSDEDPEVKFNWYVDGVEVHNAKTKPREEQYNLTYRVVSVLTVLHQDWLNGKEYKCKVSNKALPKPIEKTISKAKGQPREPQVYTLPPSREEMTKNQVSLTCLVKGFYPSDIAVEWESNGQPENNYKTTPPVLDSDGSFFLYSKLTVDKSRWQQGNVFSCSVMHEALHNHYTQKSLSLSP
light: DIVMTQSPATLSLSPGERATLSCTSSQSVYHANWLSWFQQKPGQPPKLLIYWASTLAYGVPSRFSGSGSGTDFTLTISSLQPEDAATYYCAGGYGGGRYAFGQGTKVEIKRTVAAPSVFIFPPSDEQLKSGTASVVCLLNNFYPREAKVQWKVDNALQSGNSQESVTEQDSKDSTYSLSSTLTLSKADYEKHKVYACEVTHQGLSSPVTKSFNRGEC
notes: as for B1
Turning to B5, the “KD fold (SG1 = 1)” value is 0.09 fold.

B6: M103205H795-MY514/M103202L889-SK1 (antibody, human IgG1, kappa)
heavy: QVTLKESGPVLVKPTETLTLTCTVSGIDLSHDDISWVRQAPGKGLEWVGIISYAGSTYYASWAKGRLTISKDTSKNQVVLTMTNMDPVDTATYYCARGVPAYSHGGDLWGQGTLVTVSSASTKGPSVFPLAPSSKSTSGGTAALGCLVKDYFPEPVTVSWNSGALTSGVHTFPAVLQSSGLYSLSSVVTVPSSSLGTQTYICNVNHKPSNTKVDKKVEPKSCDKTHTCPPCPAPELLTGPVVFLFPPKPKDTLMISRTPEVTCVVVDVSDEDPEVKFNWYVDGVEVHNAKTKPREEQYNLTYRVVSVLTVLHQDWLNGKEYKCKVSNKALPKPIEKTISKAKGQPREPQVYTLPPSREEMTKNQVSLTCLVKGFYPSDIAVEWESNGQPENNYKTTPPVLDSDGSFFLYSKLTVDKSRWQQGNVFSCSVMHEALHNHYTQKSLSLSP
light: DIVMTQSPATLSLSPGERATLSCTSSQSVYHANWLSWFQQKPGQPPKLLIYWASTLAYGVPSRFSGSGSGTDFTLTISSLQPEDAATYYCAGGYGGGRYAFGQGTKVEIKRTVAAPSVFIFPPSDEQLKSGTASVVCLLNNFYPREAKVQWKVDNALQSGNSQESVTEQDSKDSTYSLSSTLTLSKADYEKHKVYACEVTHQGLSSPVTKSFNRGEC
notes: as for B1
Regarding B6, the “KD fold (SG1 = 1)” value was found to be 0.08 fold.

B7: M103205H795-MY400/M103202L889-SK1 (antibody, human IgG1, kappa)
heavy: QVTLKESGPVLVKPTETLTLTCTVSGIDLSHDDISWVRQAPGKGLEWVGIISYAGSTYYASWAKGRLTISKDTSKNQVVLTMTNMDPVDTATYYCARGVPAYSHGGDLWGQGTLVTVSSASTKGPSVFPLAPSSKSTSGGTAALGCLVKDYFPEPVTVSWNSGALTSGVHTFPAVLQSSGLYSLSSVVTVPSSSLGTQTYICNVNHKPSNTKVDKKVEPKSCDKTHTCPPCPAPELLTGPSVFLFPPKPKDTLMISRTPEVTCVVVDVSDEDPEVKFNWYVDGVEVHNAKTKPREEQYNSTYRVVSVLTVLHQDWLNGKEYKCKVSNKALPKEIEKTISKAKGQPREPQVYTLPPSREEMTKNQVSLTCLVKGFYPSDIAVEWESNGQPENNYKTTPPVLDSDGSFFLYSKLTVDKSRWQQGNVFSCSVMHEALHNHYTQKSLSLSP
light: DIVMTQSPATLSLSPGERATLSCTSSQSVYHANWLSWFQQKPGQPPKLLIYWASTLAYGVPSRFSGSGSGTDFTLTISSLQPEDAATYYCAGGYGGGRYAFGQGTKVEIKRTVAAPSVFIFPPSDEQLKSGTASVVCLLNNFYPREAKVQWKVDNALQSGNSQESVTEQDSKDSTYSLSSTLTLSKADYEKHKVYACEVTHQGLSSPVTKSFNRGEC
notes: as for B1
With B7, the “KD fold (SG1 = 1)” value turned out to be 0.15 fold.

B8: M103205H795-MY386/M103202L889-SK1 (antibody, human IgG1, kappa)
heavy: QVTLKESGPVLVKPTETLTLTCTVSGIDLSHDDISWVRQAPGKGLEWVGIISYAGSTYYASWAKGRLTISKDTSKNQVVLTMTNMDPVDTATYYCARGVPAYSHGGDLWGQGTLVTVSSASTKGPSVFPLAPSSKSTSGGTAALGCLVKDYFPEPVTVSWNSGALTSGVHTFPAVLQSSGLYSLSSVVTVPSSSLGTQTYICNVNHKPSNTKVDKKVEPKSCDKTHTCPPCPAPELLLGPSVFLFPPKPKDTLMISRTPEVTCVVVDVSDEDPEVKFNWYVDGVEVHNAKTKPREELYNSTYRVVSVLTVLHQDWLNGKEYKCKVSNTALPKPIEKTISKAKGQPREPQVYTLPPSREEMTKNQVSLTCLVKGFYPSDIAVEWESNGQPENNYKTTPPVLDSDGSFFLYSKLTVDKSRWQQGNVFSCSVMHEALHNHYTQKSLSLSP
light: DIVMTQSPATLSLSPGERATLSCTSSQSVYHANWLSWFQQKPGQPPKLLIYWASTLAYGVPSRFSGSGSGTDFTLTISSLQPEDAATYYCAGGYGGGRYAFGQGTKVEIKRTVAAPSVFIFPPSDEQLKSGTASVVCLLNNFYPREAKVQWKVDNALQSGNSQESVTEQDSKDSTYSLSSTLTLSKADYEKHKVYACEVTHQGLSSPVTKSFNRGEC
notes: as for B1
With B8, the “KD fold (SG1 = 1)” value amounted to 0.14 fold.

Values taken from US20200317768A1 (published 2020).
